# Test results from paper doi:10.1101/2022.02.13.480273.
# Biological target: GST-RABL2^S37N (Chlamydomonas reinhardtii)
# Assay: SEC
binder,measurement,value
ARL3^T30N (bacterially expressed) (natural protein) MGLLSLIRGLKKKEGEARILVLGLDNAGKNTILKALSEEDITTITPTQGFNIKSLSRDGFNLKIWDIGGQKSIRPYWRNYFDQTDALIYVIDSADSKRLSESEFELTELLQEEKMTGVPLLVFANKQDLVGALAADEIASTLDLTSIRDRPWQIQACSAKQGTGLKEGMEWMMKQVK,stoichiometry N,1
